From doi:10.1101/2024.08.27.609886

Molecular target: FibrilPaint1
Assay: MST

E3 ligase CHIP (from UniProt Q9UNE7 23-303) (enzyme)
Kd: 1.5 µM
